This note sets out measurements from the supplement of paper PMC9112550, “Optimization of the antimicrobial peptide Bac7 by deep mutational scanning” (BMC Biology, 2022).

For this series, the system named is Escherichia coli TOP10. The experiment in a line: shrunken log2 fold change of peptide-encoding DNA abundance (4.5 h post-induction vs induction); higher = less antimicrobial activity (less host growth inhibition). As to conditions: time post-induction: 4.5 h; library: site-saturation at positions 5, 18, 19, 20.
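Further: peptides expressed intracellularly from a pBAD plasmid library in pooled LB shake-flask culture, induced with 0.3% L-arabinose, DNA abundance read by NGS, three biological replicates, DESeq2 with apeglm shrinkage.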

In the case of RRIRCRPPRLPRPRPRPYLSPRP, the “shrunken log2 fold change” value was -0.577.

Regarding RRIRIRPPRLPRPRPRPSDGPRP, the “shrunken log2 fold change” value was -0.0648.

Take RRIRLRPPRLPRPRPRPGVEPRP: the “shrunken log2 fold change” value is 0.0194.

For RRIRWRPPRLPRPRPRPTKVPRP, the “shrunken log2 fold change” value was -0.0596.

Regarding RRIRHRPPRLPRPRPRPFDIPRP, the “shrunken log2 fold change” value was -0.212.

Regarding RRIRWRPPRLPRPRPRPFCEPRP, the “shrunken log2 fold change” value is 0.376.

With RRIRYRPPRLPRPRPRPSDWPRP, the “shrunken log2 fold change” value was -0.152.

RRIRYRPPRLPRPRPRPEAHPRP: the “shrunken log2 fold change” value is -0.281.

For the sequence RRIRARPPRLPRPRPRPTGWPRP, the “shrunken log2 fold change” value is 0.756.

Regarding RRIRIRPPRLPRPRPRPVDPPRP, the “shrunken log2 fold change” value was 0.106.

As to RRIRVRPPRLPRPRPRPIPTPRP, the “shrunken log2 fold change” value worked out at 0.191.

Take RRIRWRPPRLPRPRPRPTINPRP: the “shrunken log2 fold change” value is -0.303.

Turning to RRIRFRPPRLPRPRPRPNHLPRP, the “shrunken log2 fold change” value was -1.06.

Turning to RRIRFRPPRLPRPRPRPPYSPRP, the “shrunken log2 fold change” value was -0.235.

For RRIRGRPPRLPRPRPRPNVFPRP, the “shrunken log2 fold change” value is 0.27.

For RRIRMRPPRLPRPRPRPRPTPRP, the “shrunken log2 fold change” value worked out at 1.27.

With RRIRVRPPRLPRPRPRPHRPPRP, the “shrunken log2 fold change” value was -0.243.

For the sequence RRIRDRPPRLPRPRPRPYWSPRP, the “shrunken log2 fold change” value was -0.503.

Consider RRIRSRPPRLPRPRPRPPPPPRP, for which the “shrunken log2 fold change” value was 1.03.

For RRIRQRPPRLPRPRPRPDPGPRP, the “shrunken log2 fold change” value was -0.00151.

RRIRARPPRLPRPRPRPWDFPRP: the “shrunken log2 fold change” value is -0.00352.

With RRIRCRPPRLPRPRPRPYVQPRP, the “shrunken log2 fold change” value was -0.113.

As to RRIRERPPRLPRPRPRPEHYPRP, the “shrunken log2 fold change” value was -0.454.

Turning to RRIRERPPRLPRPRPRPTAGPRP, the “shrunken log2 fold change” value is 0.161.

RRIRVRPPRLPRPRPRPVSYPRP: the “shrunken log2 fold change” value is -0.51.

With RRIRDRPPRLPRPRPRPVNTPRP, the “shrunken log2 fold change” value was -0.327.

Consider RRIRHRPPRLPRPRPRPAYTPRP, for which the “shrunken log2 fold change” value was -0.482.

For RRIRYRPPRLPRPRPRPLAMPRP, the “shrunken log2 fold change” value is -0.311.

With RRIRSRPPRLPRPRPRPFHYPRP, the “shrunken log2 fold change” value was -0.429.

Regarding RRIRCRPPRLPRPRPRPVGTPRP, the “shrunken log2 fold change” value was -0.149.

On to RRIRLRPPRLPRPRPRPENWPRP, for which the “shrunken log2 fold change” value is 0.046.

On to RRIRMRPPRLPRPRPRPPRIPRP, for which the “shrunken log2 fold change” value stood at 0.226.

For RRIRHRPPRLPRPRPRPGKNPRP, the “shrunken log2 fold change” value was -0.0444.

On to RRIRNRPPRLPRPRPRPECCPRP, for which the “shrunken log2 fold change” value came to 0.517.

For RRIRWRPPRLPRPRPRPHMFPRP, the “shrunken log2 fold change” value was -0.0668.

Consider RRIRDRPPRLPRPRPRPVWPPRP, for which the “shrunken log2 fold change” value came to 0.225.

Take RRIRSRPPRLPRPRPRPSKRPRP: the “shrunken log2 fold change” value was -0.126.

For RRIRPRPPRLPRPRPRPLWDPRP, the “shrunken log2 fold change” value is 0.00439.

Consider RRIRWRPPRLPRPRPRPLNLPRP, for which the “shrunken log2 fold change” value was -0.184.

Consider RRIRVRPPRLPRPRPRPEPVPRP, for which the “shrunken log2 fold change” value stood at 0.365.

As to RRIRDRPPRLPRPRPRPWTNPRP, the “shrunken log2 fold change” value is -0.111.

For RRIRWRPPRLPRPRPRPNNPPRP, the “shrunken log2 fold change” value was -0.631.

For RRIRARPPRLPRPRPRPLCTPRP, the “shrunken log2 fold change” value was found to be 0.223.

Turning to RRIRIRPPRLPRPRPRPLLFPRP, the “shrunken log2 fold change” value was -0.553.

Take RRIRSRPPRLPRPRPRPYRSPRP: the “shrunken log2 fold change” value is -0.47.

Turning to RRIRARPPRLPRPRPRPSQDPRP, the “shrunken log2 fold change” value came out at 0.196.

For the sequence RRIRWRPPRLPRPRPRPYVAPRP, the “shrunken log2 fold change” value is -0.492.

Turning to RRIRMRPPRLPRPRPRPENFPRP, the “shrunken log2 fold change” value is 0.0515.

Consider RRIRYRPPRLPRPRPRPDYWPRP, for which the “shrunken log2 fold change” value is -0.134.

With RRIRWRPPRLPRPRPRPTEIPRP, the “shrunken log2 fold change” value is -0.22.

Consider RRIRFRPPRLPRPRPRPWRKPRP, for which the “shrunken log2 fold change” value was -0.0813.

Regarding RRIRARPPRLPRPRPRPCVNPRP, the “shrunken log2 fold change” value was determined as 0.194.

Take RRIRNRPPRLPRPRPRPKWVPRP: the “shrunken log2 fold change” value is 0.132.

Take RRIRSRPPRLPRPRPRPDYKPRP: the “shrunken log2 fold change” value is -0.722.

With RRIRRRPPRLPRPRPRPQLIPRP, the “shrunken log2 fold change” value was -0.0726.

RRIRQRPPRLPRPRPRPKTLPRP: the “shrunken log2 fold change” value was -0.156.

As to RRIRRRPPRLPRPRPRPYSPPRP, the “shrunken log2 fold change” value came out at 0.00204.

Take RRIRERPPRLPRPRPRPKGIPRP: the “shrunken log2 fold change” value was -0.000842.

Turning to RRIRSRPPRLPRPRPRPHIKPRP, the “shrunken log2 fold change” value was -0.255.

For RRIRLRPPRLPRPRPRPLDVPRP, the “shrunken log2 fold change” value was -0.205.

As for RRIRARPPRLPRPRPRPLGNPRP, the “shrunken log2 fold change” value stood at 0.0331.

Take RRIRCRPPRLPRPRPRPMHCPRP: the “shrunken log2 fold change” value is -0.107.

Regarding RRIRCRPPRLPRPRPRPMPHPRP, the “shrunken log2 fold change” value is -0.0714.

RRIRGRPPRLPRPRPRPMGPPRP: the “shrunken log2 fold change” value amounted to 0.846.

On to RRIRWRPPRLPRPRPRPDAFPRP, for which the “shrunken log2 fold change” value turned out to be 0.0334.

Regarding RRIRVRPPRLPRPRPRPSCDPRP, the “shrunken log2 fold change” value is -0.231.

Turning to RRIRSRPPRLPRPRPRPEYGPRP, the “shrunken log2 fold change” value was -0.346.

On to RRIRIRPPRLPRPRPRPMGSPRP, for which the “shrunken log2 fold change” value was -0.0432.

With RRIRFRPPRLPRPRPRPSDGPRP, the “shrunken log2 fold change” value is -0.391.

As for RRIRGRPPRLPRPRPRPMTLPRP, the “shrunken log2 fold change” value is 0.509.

Turning to RRIRARPPRLPRPRPRPDHNPRP, the “shrunken log2 fold change” value was -0.154.

RRIRWRPPRLPRPRPRPDIPPRP: the “shrunken log2 fold change” value is -0.367.

Turning to RRIRVRPPRLPRPRPRPPHRPRP, the “shrunken log2 fold change” value was 0.29.

In the case of RRIRNRPPRLPRPRPRPYFIPRP, the “shrunken log2 fold change” value was -0.645.

Consider RRIRFRPPRLPRPRPRPVTNPRP, for which the “shrunken log2 fold change” value was -0.0718.

Take RRIRDRPPRLPRPRPRPYWFPRP: the “shrunken log2 fold change” value was -0.579.

As to RRIRSRPPRLPRPRPRPHQNPRP, the “shrunken log2 fold change” value is -0.0421.

As for RRIRPRPPRLPRPRPRPCYQPRP, the “shrunken log2 fold change” value was -0.565.

Regarding RRIRPRPPRLPRPRPRPMMVPRP, the “shrunken log2 fold change” value is -0.0739.

Consider RRIRVRPPRLPRPRPRPVDPPRP, for which the “shrunken log2 fold change” value amounted to 0.22.

Consider RRIRLRPPRLPRPRPRPCCSPRP, for which the “shrunken log2 fold change” value is -0.144.

Regarding RRIRIRPPRLPRPRPRPFDQPRP, the “shrunken log2 fold change” value was -0.385.

On to RRIRWRPPRLPRPRPRPRWVPRP, for which the “shrunken log2 fold change” value was determined as 0.454.

As to RRIRARPPRLPRPRPRPIRSPRP, the “shrunken log2 fold change” value was -0.129.

As for RRIRVRPPRLPRPRPRPQWCPRP, the “shrunken log2 fold change” value stood at 0.0102.

As for RRIRCRPPRLPRPRPRPFDWPRP, the “shrunken log2 fold change” value is -0.0737.

For RRIRWRPPRLPRPRPRPFYAPRP, the “shrunken log2 fold change” value is -0.174.

As for RRIRERPPRLPRPRPRPCSIPRP, the “shrunken log2 fold change” value was -0.471.

In the case of RRIRVRPPRLPRPRPRPFLQPRP, the “shrunken log2 fold change” value is 0.15.

Turning to RRIRQRPPRLPRPRPRPWTEPRP, the “shrunken log2 fold change” value worked out at 0.0355.

Consider RRIRARPPRLPRPRPRPANAPRP, for which the “shrunken log2 fold change” value is 0.301.

Regarding RRIRFRPPRLPRPRPRPKAIPRP, the “shrunken log2 fold change” value is -0.0919.

For RRIRRRPPRLPRPRPRPQRPPRP, the “shrunken log2 fold change” value was determined as 0.391.

For RRIRDRPPRLPRPRPRPTFTPRP, the “shrunken log2 fold change” value was 0.347.

As for RRIRGRPPRLPRPRPRPHWLPRP, the “shrunken log2 fold change” value amounted to 0.14.

With RRIRVRPPRLPRPRPRPEIAPRP, the “shrunken log2 fold change” value was -0.0307.

On to RRIRIRPPRLPRPRPRPLPFPRP, for which the “shrunken log2 fold change” value was -1.01.

In the case of RRIRLRPPRLPRPRPRPIHMPRP, the “shrunken log2 fold change” value is -0.0933.

Regarding RRIRMRPPRLPRPRPRPGLCPRP, the “shrunken log2 fold change” value came out at 1.79.

For the sequence RRIRHRPPRLPRPRPRPDDNPRP, the “shrunken log2 fold change” value is -0.0371.

RRIRSRPPRLPRPRPRPTLCPRP: the “shrunken log2 fold change” value turned out to be 0.0788.

RRIRMRPPRLPRPRPRPPPKPRP: the “shrunken log2 fold change” value was determined as 2.03.

As for RRIRPRPPRLPRPRPRPNGDPRP, the “shrunken log2 fold change” value was -0.0945.

On to RRIRHRPPRLPRPRPRPRLEPRP, for which the “shrunken log2 fold change” value is 0.0466.

Consider RRIRERPPRLPRPRPRPGVCPRP, for which the “shrunken log2 fold change” value came to 0.155.

In the case of RRIRIRPPRLPRPRPRPMAMPRP, the “shrunken log2 fold change” value was -0.024.

RRIRMRPPRLPRPRPRPEPSPRP: the “shrunken log2 fold change” value is 2.72.

On to RRIRYRPPRLPRPRPRPLTRPRP, for which the “shrunken log2 fold change” value was -0.0623.

In the case of RRIRWRPPRLPRPRPRPLFWPRP, the “shrunken log2 fold change” value was determined as 0.373.

With RRIRARPPRLPRPRPRPITVPRP, the “shrunken log2 fold change” value was -0.201.

Take RRIRSRPPRLPRPRPRPHRNPRP: the “shrunken log2 fold change” value is -0.489.

In the case of RRIRARPPRLPRPRPRPHKMPRP, the “shrunken log2 fold change” value is 0.118.

On to RRIRKRPPRLPRPRPRPWIYPRP, for which the “shrunken log2 fold change” value was -0.00162.

For the sequence RRIRLRPPRLPRPRPRPKKCPRP, the “shrunken log2 fold change” value was -0.198.

Regarding RRIRCRPPRLPRPRPRPMEMPRP, the “shrunken log2 fold change” value was -0.193.

With RRIRCRPPRLPRPRPRPTKYPRP, the “shrunken log2 fold change” value was -0.192.

With RRIRTRPPRLPRPRPRPWDQPRP, the “shrunken log2 fold change” value is -0.00674.

RRIRSRPPRLPRPRPRPCADPRP: the “shrunken log2 fold change” value was determined as 0.0939.

For the sequence RRIRQRPPRLPRPRPRPHMTPRP, the “shrunken log2 fold change” value is -0.391.

For RRIRNRPPRLPRPRPRPDHIPRP, the “shrunken log2 fold change” value was 0.00647.

Take RRIRFRPPRLPRPRPRPCCVPRP: the “shrunken log2 fold change” value was -0.189.

In the case of RRIRMRPPRLPRPRPRPIWHPRP, the “shrunken log2 fold change” value is -0.0798.

For the sequence RRIRQRPPRLPRPRPRPPKPPRP, the “shrunken log2 fold change” value was -0.0724.

Turning to RRIRLRPPRLPRPRPRPIFVPRP, the “shrunken log2 fold change” value was -0.0836.

For RRIRLRPPRLPRPRPRPQYHPRP, the “shrunken log2 fold change” value was -0.895.
